Assays:
[1] = biological target: T1, PD-1 shown on cells (Raji-PD-1 cells); CD3/CD28 activated human CD8+ T cells; PD-1 effector cells of the … (human, UniProt Q15116 25-288); test: flow cytometry on CD3+CD8+ T cells within CD3/CD28 activated human PBMCs, 1 h at 4 C, anti-human IgG PE, % anti-hIgG+; table CD8+ T cells under the graph
T1 construct: whole, on cells; Human is stated for the PBMCs; also called hPD-1; PD1 expressing Raji cells
Description: Mixed donor lots of human peripheral blood mononuclear cells (PBMCs) were thawed and seeded in medium (RPMI1640, 10% fetal bovine serum (FBS), 2 mM 1-Glutamine, 50 U/mL penicillin, 50 μg/mL streptomycin, 1 μM each of non-essential amino acids, 10 mM HEPES, 1 mM sodium pyruvate, 55 μM B-mercaptoethanol, 10 μg/mL gentamycin) into tissue culture treated plates that were coated for 1 h at 37° C. with 1 μg/ml anti-CD3. Anti-CD28 was added in solution at a concentration of 5 μg/ml. Two days later the PBMCs were collected and transferred into a 96 well v-bottom plate at 100,000 cells per well in FACS Buffer (2% FBS in phosphate buffered saline (PBS)). Test articles were diluted to twice the indicated concentration in FACS buffer. Test articles were added to cells at a 1:1 ratio to the final concentration indicated in the figure and incubated for 1 h at 4° C. The cells were washed three times with FACS buffer and fixed in 4% PFA. Cells were then washed once in FACS buffer. All cells were stained in 100 μL of indicated molecules in FACS buffer for 1 h at 4° C. The cells were washed three times with FACS buffer and fixed in 4% paraformaldehyde (PFA). All cells were subsequently stained in 100 μL with anti-human IgG PE, anti-CD3 PE/Dazzle 594, anti-CD45 PerCP Cy5.5, anti-CD8 BV510, and anti-CD4 BV421 for 30 minutes. Cells were washed twice to remove unbound antibody and analyzed on the BD Celesta by gating on CD3+CD8+ T cells.

[2] = biological target: PD-1 (antigen of the ELISA and of the in vitro affinity measurement) (UniProt Q15116 25-167, limits assumed); test: kinetic binding table: TC3 captured as ligand (capture level 78.1 RU), hPD1-his as sample; method not given
Chain of PD-1 (antigen of the ELISA and of the in vitro affinity measurement) (Q15116 25-167 limits assumed): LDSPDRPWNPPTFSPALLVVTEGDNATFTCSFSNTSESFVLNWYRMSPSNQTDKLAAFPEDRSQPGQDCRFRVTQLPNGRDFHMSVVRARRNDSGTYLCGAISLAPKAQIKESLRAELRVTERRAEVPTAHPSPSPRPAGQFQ

T1 sequence (Q15116 25-288): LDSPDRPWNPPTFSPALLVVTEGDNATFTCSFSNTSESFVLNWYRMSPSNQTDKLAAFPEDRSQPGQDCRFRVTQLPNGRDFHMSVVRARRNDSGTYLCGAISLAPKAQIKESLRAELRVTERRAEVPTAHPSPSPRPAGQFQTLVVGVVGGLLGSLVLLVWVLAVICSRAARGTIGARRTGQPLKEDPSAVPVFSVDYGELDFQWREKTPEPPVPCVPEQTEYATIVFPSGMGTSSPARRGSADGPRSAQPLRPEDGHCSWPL

EC50 [1] [nM] | Kd [2] [nM] | koff [2] [s⁻¹] | kon [2] [M⁻¹ s⁻¹] | Binder
0.1 | 7.11 | 0.00328 | 461000 | TC3 (Fc fusion, Bivalent anti-PD-1 Fab) heavy 1: QVQLVQSGVEVKKPGASVKVSCKASGYTFTNYYMYWVRQAPGQGLEWMGGINPSNGGTNFNEKFKNRVTLTTDSSTTTAYMELKSLQFDDTAVYYCARRDYRFDMGFDYWGQGTTVTVSSASTKGPSVFPLAPSSKSTSGGTAALGCLVKDYFPEPVTVSWNSGALTSGVHTFPAVLQSSGLYSLSSVVTVPSSSLGTQTYICNVNHKPSNTKVDKKVEPKSCDKTHTCPPCPAPELLGGPSVFLFPPKPKDTLMISRTPEVTCVVVDVSHEDPEVKFNWYVDGVEVHNAKTKPREEQYASTYRVVSVLTVLHQDWLNGKEYKCKVSNKALPAPIEKTISKAKGQPREPQVYTLPPCRDELTKNQVSLWCLVKGFYPSDIAVEWESNGQPENNYKTTPPVLDSDGSFFLYSKLTVDKSRWQQGNVFSCSVMHEALHNRFTQKSLSLSPGGGSSPPGGGSSGGGSGPAPTSSSTKKTQLQLEHLLLDLQMILNGINNYKNPKLTAMLTAKFAMPKKATELKHLQCLEEALKPLEEVLNLAQSKNFHLRPRDLISNINVIVLELKGSETTFMCEYADETATIVEFLNRWITFAQSIISTLT heavy 2: QVQLVQSGVEVKKPGASVKVSCKASGYTFTNYYMYWVRQAPGQGLEWMGGINPSNGGTNFNEKFKNRVTLTTDSSTTTAYMELKSLQFDDTAVYYCARRDYRFDMGFDYWGQGTTVTVSSASTKGPSVFPLAPSSKSTSGGTAALGCLVKDYFPEPVTVSWNSGALTSGVHTFPAVLQSSGLYSLSSVVTVPSSSLGTQTYICNVNHKPSNTKVDKKVEPKSCDKTHTCPPCPAPELLGGPSVFLFPPKPKDTLMISRTPEVTCVVVDVSHEDPEVKFNWYVDGVEVHNAKTKPREEQYASTYRVVSVLTVLHQDWLNGKEYKCKVSNKALPAPIEKTISKAKGQPREPQVCTLPPSRDELTKNQVSLSCAVKGFYPSDIAVEWESNGQPENNYKTTPPVLDSDGSFFLVSKLTVDKSRWQQGNVFSCSVMHEALHNHYTQKSLSLSPGGPPSGSSPMPYDLYHPSGGGAVNGTSQFTCFYNSRANISCVWSQDGALQDTSCQVHAWPDRRRWNQTCELLPVSQASWACNLILGAPDSQKLTTVDIVTLRVLCREGVRWRVMAIQDFKPFENLRLMAPISLQVVHVETHRSNISWEISQASHYFERHLEFEARTLSPGHTWEEAPLLTLKQKQEWISLETLTPDTQYEFQVRVKPLQGEFTTWSPWSQPLAFRTKPAALGKD light: EIVLTQSPATLSLSPGERATLSCRASKGVSTSGYSYLHWYQQKPGQAPRLLIYLASYLESGVPARFSGSGSGTDFTLTISSLEPEDFAVYYCQHSRDLPLTFGGGTKVEIKRTVAAPSVFIFPPSDEQLKSGTASVVCLLNNFYPREAKVQWKVDNALQSGNSQESVTEQDSKDSTYSLSSTLTLSKADYEKHKVYACEVTHQGLSSPVTKSFNRGEC
0.1 |  |  |  | TC24 (Fc fusion, Mask CD122 (C122S, C168S)) heavy 1: QVQLVQSGVEVKKPGASVKVSCKASGYTFTNYYMYWVRQAPGQGLEWMGGINPSNGGTNFNEKFKNRVTLTTDSSTTTAYMELKSLQFDDTAVYYCARRDYRFDMGFDYWGQGTTVTVSSASTKGPSVFPLAPSSKSTSGGTAALGCLVKDYFPEPVTVSWNSGALTSGVHTFPAVLQSSGLYSLSSVVTVPSSSLGTQTYICNVNHKPSNTKVDKKVEPKSCDKTHTCPPCPAPELLGGPSVFLFPPKPKDTLMISRTPEVTCVVVDVSHEDPEVKFNWYVDGVEVHNAKTKPREEQYASTYRVVSVLTVLHQDWLNGKEYKCKVSNKALPAPIEKTISKAKGQPREPQVYTLPPCRDELTKNQVSLWCLVKGFYPSDIAVEWESNGQPENNYKTTPPVLDSDGSFFLYSKLTVDKSRWQQGNVFSCSVMHEALHNRFTQKSLSLSPGGGSSPPGGGSSGGGSGPAPTSSSTKKTQLQLEHLLLDLQMILNGINNYKNPKLTAMLTAKFAMPKKATELKHLQCLEEALKPLEEVLNLAQSKNFHLRPRDLISNINVIVLELKGSETTFMCEYADETATIVEFLNRWITFAQSIISTLT heavy 2: QVQLVQSGVEVKKPGASVKVSCKASGYTFTNYYMYWVRQAPGQGLEWMGGINPSNGGTNFNEKFKNRVTLTTDSSTTTAYMELKSLQFDDTAVYYCARRDYRFDMGFDYWGQGTTVTVSSASTKGPSVFPLAPSSKSTSGGTAALGCLVKDYFPEPVTVSWNSGALTSGVHTFPAVLQSSGLYSLSSVVTVPSSSLGTQTYICNVNHKPSNTKVDKKVEPKSCDKTHTCPPCPAPELLGGPSVFLFPPKPKDTLMISRTPEVTCVVVDVSHEDPEVKFNWYVDGVEVHNAKTKPREEQYASTYRVVSVLTVLHQDWLNGKEYKCKVSNKALPAPIEKTISKAKGQPREPQVCTLPPSRDELTKNQVSLSCAVKGFYPSDIAVEWESNGQPENNYKTTPPVLDSDGSFFLVSKLTVDKSRWQQGNVFSCSVMHEALHNHYTQKSLSLSPGGGSSGPVPLSLYSGSGGGAVNGTSQFTCFYNSRANISCVWSQDGALQDTSCQVHAWPDRRRWNQTCELLPVSQASWACNLILGAPDSQKLTTVDIVTLRVLCREGVRWRVMAIQDFKPFENLRLMAPISLQVVHVETHRSNISWEISQASHYFERHLEFEARTLSPGHTWEEAPLLTLKQKQEWISLETLTPDTQYEFQVRVKPLQGEFTTWSPWSQPLAFRTKPAALGKD light: EIVLTQSPATLSLSPGERATLSCRASKGVSTSGYSYLHWYQQKPGQAPRLLIYLASYLESGVPARFSGSGSGTDFTLTISSLEPEDFAVYYCQHSRDLPLTFGGGTKVEIKRTVAAPSVFIFPPSDEQLKSGTASVVCLLNNFYPREAKVQWKVDNALQSGNSQESVTEQDSKDSTYSLSSTLTLSKADYEKHKVYACEVTHQGLSSPVTKSFNRGEC
0.1 |  |  |  | TC47 (Fc fusion, Mask CD122 (C122A, N123C)) heavy 1: QVQLVQSGVEVKKPGASVKVSCKASGYTFTNYYMYWVRQAPGQGLEWMGGINPSNGGTNFNEKFKNRVTLTTDSSTTTAYMELKSLQFDDTAVYYCARRDYRFDMGFDYWGQGTTVTVSSASTKGPSVFPLAPSSKSTSGGTAALGCLVKDYFPEPVTVSWNSGALTSGVHTFPAVLQSSGLYSLSSVVTVPSSSLGTQTYICNVNHKPSNTKVDKKVEPKSCDKTHTCPPCPAPELLGGPSVFLFPPKPKDTLMISRTPEVTCVVVDVSHEDPEVKFNWYVDGVEVHNAKTKPREEQYASTYRVVSVLTVLHQDWLNGKEYKCKVSNKALPAPIEKTISKAKGQPREPQVYTLPPCRDELTKNQVSLWCLVKGFYPSDIAVEWESNGQPENNYKTTPPVLDSDGSFFLYSKLTVDKSRWQQGNVFSCSVMHEALHNRFTQKSLSLSPGGGSSPPGGGSSGGGSGPAPTSSSTKKTQLQLEHLLLDLQMILNGINNYKNPKLTAMLTAKFAMPKKATELKHLQCLEEALKPLEEVLNLAQSKNFHLRPRDLISNINVIVLELKGSETTFMCEYADETATIVEFLNRWITFAQSIISTLT heavy 2: QVQLVQSGVEVKKPGASVKVSCKASGYTFTNYYMYWVRQAPGQGLEWMGGINPSNGGTNFNEKFKNRVTLTTDSSTTTAYMELKSLQFDDTAVYYCARRDYRFDMGFDYWGQGTTVTVSSASTKGPSVFPLAPSSKSTSGGTAALGCLVKDYFPEPVTVSWNSGALTSGVHTFPAVLQSSGLYSLSSVVTVPSSSLGTQTYICNVNHKPSNTKVDKKVEPKSCDKTHTCPPCPAPELLGGPSVFLFPPKPKDTLMISRTPEVTCVVVDVSHEDPEVKFNWYVDGVEVHNAKTKPREEQYASTYRVVSVLTVLHQDWLNGKEYKCKVSNKALPAPIEKTISKAKGQPREPQVCTLPPSRDELTKNQVSLSCAVKGFYPSDIAVEWESNGQPENNYKTTPPVLDSDGSFFLVSKLTVDKSRWQQGNVFSCSVMHEALHNHYTQKSLSLSPGGGSSGPVPLSLYSGSGGGAVNGTSQFTCFYNSRANISCVWSQDGALQDTSCQVHAWPDRRRWNQTCELLPVSQASWACNLILGAPDSQKLTTVDIVTLRVLCREGVRWRVMAIQDFKPFENLRLMAPISLQVVHVETHRACISWEISQASHYFERHLEFEARTLSPGHTWEEAPLLTLKQKQEWICLETLTPDTQYEFQVRVKPLQGEFTTWSPWSQPLAFRTKPAALGKD light: EIVLTQSPATLSLSPGERATLSCRASKGVSTSGYSYLHWYQQKPGQAPRLLIYLASYLESGVPARFSGSGSGTDFTLTISSLEPEDFAVYYCQHSRDLPLTFGGGTKVEIKRTVAAPSVFIFPPSDEQLKSGTASVVCLLNNFYPREAKVQWKVDNALQSGNSQESVTEQDSKDSTYSLSSTLTLSKADYEKHKVYACEVTHQGLSSPVTKSFNRGEC

— patent publication US20230365641A1 (XILIO DEVELOPMENT, published 2023)
